{"source": "patent US20070055049A1", "key": {"[1]": {"molecular_target": "HLA-A3.2 (product of the A*0301 gene) (human)"}, "[2]": {"molecular_target": "HLA-A*0201 (human)", "settings": "remark: other sources report otherwise"}, "[3]": {"molecular_target": "HLA-A*0201 (human)", "assay": "inhibition curve with unlabeled peptide, purified A2.1", "settings": "remark: other sources report otherwise"}, "[4]": {"molecular_target": "HLA-A*0201 (human)", "assay": "competitive inhibition, purified HLA-A2.1, standard reference peptide"}, "[5]": {"molecular_target": "HLA-A*0201 (human)", "assay": "competitive inhibition, purified HLA-A2.1, reference peptide"}, "[6]": {"molecular_target": "HLA-A*0203 (human)", "assay": "competitive inhibition of the radiolabeled peptide, purified HLA, average"}, "[7]": {"molecular_target": "HLA-A*0201 (human)", "assay": "competitive inhibition of the radiolabeled peptide, purified HLA, average"}, "[8]": {"molecular_target": "HLA-A*0201 (human)", "assay": "competitive inhibition, purified HLA-A2.1"}}, "data": [{"binder": "FLPSDFFPSV (modifications not checked)", "note": "[HBc 18-27 peptide, P03146 18-27]", "values": [{"measurement": "IC50", "setting": "[1]", "value": "> 30000", "unit": "nM"}, {"measurement": "percent of radiolabeled peptide bound", "setting": "[2]", "value": 95, "unit": "%"}, {"measurement": "IC50", "setting": "[3]", "value": 25, "unit": "nM"}]}, {"binder": "FLPSDYFPSV (modifications not checked)", "note": "[HBV core 18-27 F6>Y analog peptide]", "values": [{"measurement": "IC50", "setting": "[4]", "value": 5, "unit": "nM"}, {"measurement": "IC50", "setting": "[5]", "value": 5, "unit": "nM"}, {"measurement": "IC50", "setting": "[6]", "value": 10, "unit": "nM"}, {"measurement": "IC50", "setting": "[7]", "value": 5, "unit": "nM"}]}, {"binder": "YMDDVVLGA (modifications not checked)", "note": "[HBV pol 538 peptide]", "values": [{"measurement": "IC50", "setting": "[8]", "value": 200, "unit": "nM"}]}]}
